Measured values published in patent publication US12285502B2, “HER3 peptides for imaging and radiotherapy” (The General Hospital Corporation, priority 2016, dated 2025).
Like-named read-outs stand apart in the source and are kept apart here.

Columns and labels:
TNBC cell lines [1] = settings: criterion for cell lines considered sensitive (CAL-148, HCC-70, CAL-51, HCC-1395, HS-578T); cited from earlier work
TNBC cell lines [2] = settings: criterion for cell lines considered sensitive (HDQ-P1, CAL-51, HCC-70, CAL-148, HCC-1395, HS-578T); cited from earlier work
[3] = test system: HCC-1954 (low HER3 expressing breast cancer) tumors; set-up: species or system Nu/nu mice; settings: mouse, in vivo
Protocol: (§1) The peptide was radio labeled with the radiometal ^68Ga eluted from a ^68Ge/^68Ga generator (iThemba, South Africa) in 0.05M HCl. The pH of the elution was adjusted to approximately 4 by 2M=2-[4-(2-hydroxyethyl) piperazin-1-yl]ethanesulfonic acid and 100 ng of peptide reacted with the elution for 10 min at room temperature. Peptide was purified from free ^68Ga by reverse phase C18 cartridge (Waters, Milford, MA) and purity determined by ITLC. The peptide was then prepared in normal saline to a specific activity of approximately 300 MBq/mg for injection into mice. Nu/nu mice bearing either 22RV1 (high HER3 expressing prostate cancer) or HCC-1954 (low HER3 expressing breast cancer) tumors were implanted in the right upper flank of mice and grown to approximately 5-7 mm. Radiolabeled HER3 peptide was injected intravenously and allowed to circulate for 1 h prior to PET imaging. PET images were acquired on an Inveon micro PET/CT (Siemens, Knoxville, TN) for 15 minutes in list mode, followed by CT acquisition. Images were constructed using 3D-MLEM (20 subsets) and corrected for scatter and randoms. The tumor and blood uptake was calculated in a 3D region of interest drawn around the tumor and heart, respectively, using CT guidance. Images were post-processed using VivoQuant (InviCRO, Boston, MA).

[4] = test system: 22RV1 (high HER3 expressing prostate cancer) tumors; set-up: species or system Nu/nu mice; settings: mouse, in vivo
Protocol: as §1

[5] = test system: HCC-1954 cells (low HER3); experiment: HER3 peptide cellular binding (streptavidin-HRP absorbance, fluorescent microscopy), HCC-1954; format: cell-based; settings: fixed HCC-1954 cells, 250 nM peptide
Protocol: (§2) Two cell lines, MDA-MB-453 breast cancer cells which express moderate levels of HER3 and HCC-1954 cells which express low levels of HER3, were chosen to assess the ability of the peptide to discriminate between relatively close expression levels in vitro. Cells were seeded at a density of 1×10^5 cells/well in 96 well plates (Fisher) and grown overnight for 24 h in fetal bovine serum supplemented medium. HER3 peptide or a control peptide were added at 250 nM in media and incubated for 1 h at 37° C. Cells were washed 3× with PBS and bound peptide detected by addition of streptavidin-HRP. Cells were once again washed and bound peptide detected by addition of ABTS and absorbance read at 405 nm. Visual confirmation of peptide binding was confirmed by fluorescent microscopy. MDA-MB-453 and HCC-1954 cells were fixed in 10% formalin and dried onto microscope slides overnight. Following rehydration with TBS, slides were blocked with 2% BSA in TBS for 1 h prior to addition of peptide at a concentration of 250 nM in 0.1% TBST and incubation at room temperature for 1 h. Cells were washed 3× with 0.1% TBST and neutravidin-Alexafluor488 was added to cells and incubated at room temperature for 1 h. Cells were washed, mounted with Vectorshield mounting media with DAPI (Vector Labs, Burlingame, CA) and visualized by inverted microscope (Olympus, Tokyo, Japan).

[6] = test system: MDA-MB-453 breast cancer cells (moderate HER3); experiment: HER3 peptide cellular binding (streptavidin-HRP absorbance, fluorescent microscopy), MDA-MB-453; format: cell-based
Protocol: as §2

HER3 ECD = HER3 ECD (Homo sapiens, UniProt P21860); settings: peptide ELISA absorbance
Protocol: (§3) The purity and molecular weight were determined by high performance liquid chromatography and mass spectrometry. […] Following blocking with 1% non-fat dry milk, increasing concentrations of peptide were incubated with target protein for 1 h at 37° C. Wells were washed with 0.1% TBST, and bound peptide detected by addition of HRP-conjugated streptavidin (Abeam, Cambridge, UK), washing and ABTS substrate incubation for 10 minutes. Absorbance at 405 nm was read by spectrophotometer. […] Plates were washed and bound peptide once again detected by addition of streptavidin-HRP and ABTS and absorbance read at 405 nm.

EGFR = EGFR (Homo sapiens, UniProt P00533); settings: 250 nM peptide, 405 nm
Protocol: as §3

human MDA-MB-453 tumors = test system: human MDA-MB-453 tumors; set-up: species or system mice; settings: mouse, in vivo
Protocol: Following imaging, mice were treated with 100 mg/kg of lapatinib every 12 hours for 48 hours following PET imaging. At the end of 48 hours, mice were imaged in the exact same manner as before treatment.

[7] = mouse, in vivo, iv
Excerpt: Following PET acquisition, tumors and relevant organs were removed from mice, weighed, and total activity for each was quantified by a Wallac gamma counter (Perkin Elmer, Waltham, MA). […] The specific activity of the labeled peptide was 296±25.9 MBq/mg.

Chain of HER3 ECD (P21860 20-643 limits assumed): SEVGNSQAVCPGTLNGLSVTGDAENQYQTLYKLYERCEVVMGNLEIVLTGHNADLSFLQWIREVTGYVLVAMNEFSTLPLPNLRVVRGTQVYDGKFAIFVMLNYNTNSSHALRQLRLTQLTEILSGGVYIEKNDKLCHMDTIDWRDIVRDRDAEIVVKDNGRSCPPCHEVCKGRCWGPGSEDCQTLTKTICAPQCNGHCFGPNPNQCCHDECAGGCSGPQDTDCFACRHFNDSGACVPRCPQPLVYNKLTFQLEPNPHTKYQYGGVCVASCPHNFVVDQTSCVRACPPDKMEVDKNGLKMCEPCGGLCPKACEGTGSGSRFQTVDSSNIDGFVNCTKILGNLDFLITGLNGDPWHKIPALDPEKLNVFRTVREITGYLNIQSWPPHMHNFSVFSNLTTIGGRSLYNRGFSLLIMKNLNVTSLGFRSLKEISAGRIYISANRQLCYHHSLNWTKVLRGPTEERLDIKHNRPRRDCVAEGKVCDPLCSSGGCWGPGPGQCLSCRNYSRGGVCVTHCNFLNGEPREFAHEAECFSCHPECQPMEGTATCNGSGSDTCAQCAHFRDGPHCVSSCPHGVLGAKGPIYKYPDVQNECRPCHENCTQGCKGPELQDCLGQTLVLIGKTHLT

CC(C)NC[C@@H](C(=O)N1CCN(c2ncnc3c2[C@H](C)C[C@H]3O)CC1)c1ccc(Cl)cc1 [GDC-0068]
IC50 (TNBC cell lines [1]): < 1 µM

CS(=O)(=O)N1CCN(Cc2cc3nc(-c4cccc5[nH]ncc45)nc(N4CCOCC4)c3s2)CC1 [GDC-0941]
IC50 (TNBC cell lines [2]): < 1 µM

CC(C)C[C@@H]1NC(=O)[C@@H](NC(=O)CNC(=O)CNC(=O)CNC(=O)CCNC(=S)Nc2ccc(CC3CN(CC(=O)O)CCN(CC(=O)O)CCN3CC(=O)O)cc2)CSSC[C@@H](C(=O)O)NC(=O)[C@H](CO)NC(=O)[C@H](CCCNC(=N)N)NC(=O)[C@H](Cc2ccccc2)NC(=O)[C@H](CCCCN)NC(=O)[C@H]([C@@H](C)O)NC(=O)[C@@H]2CCCN2C1=O (stereo partly drawn) [^68Ga-(NOTA-NCS)-HER3P1, ^68Ga-(NOTA-NCS)-beta A-G-G-G-C-L-P-T-K-F-R-S-C, metal not drawn]
tumor uptake by PET imaging [3]: much lower levels
standardized tumor to blood ratios (TBR) ([3]; iv): 0.69-0.94
off-target peptide accumulation [4]: minimal
tumor uptake by PET imaging [4]: high
standardized tumor to blood ratios (TBR) ([4]; iv): 1.60-3.32

C-L-P-T-K-F-R-S-C [HER3P1]
binding by fluorescent microscopy [5]: almost no visualization
cell binding absorbance ([6]; MDA-MB-453, 250 nM peptide, 1 h 37° C., 405 nm): 0.29±0.06
binding by fluorescent microscopy ([6]; fixed MDA-MB-453 cells, 250 nM peptide): high binding
selectivity/specificity for HER3 over other proteins (EGFR, HER2, BSA) (HER3 ECD): approximately 4 fold
selectivity/specificity for HER3 over other proteins (EGFR, HER2, BSA) (HER3 ECD; listed as displayed peptide conjugated to biotin): greater than 4 fold
absorbance of binding to EGFR (EGFR): 0.21±0.09
SUVmean (human MDA-MB-453 tumors): 0.42±0.04
biodistribution, HER3+ tumors [7]: 0.50±0.18 % ID/g
biodistribution, intestines [7]: 0.48±0.15 % ID/g
biodistribution, kidneys [7]: 10.1±1.67 % ID/g
biodistribution, lungs [7]: 0.70±0.14 % ID/g
biodistribution, stomach [7]: 0.30±0.07 % ID/g
